From patent US20220010003A1

Experiments:
[1] = biological target: recombinant human periostin (human) (UniProt Q15063); experiment: ELISA, human periostin coated, biotinylated tenascin C titrated, Avidin-HRP detection
[2] = biological target: recombinant human periostin (human) (UniProt Q15063); experiment: ELISA, human periostin coated, biotinylated collagen type I titrated, Avidin-HRP detection

recombinant human periostin (human), sequence (Q15063 22-836 limits assumed): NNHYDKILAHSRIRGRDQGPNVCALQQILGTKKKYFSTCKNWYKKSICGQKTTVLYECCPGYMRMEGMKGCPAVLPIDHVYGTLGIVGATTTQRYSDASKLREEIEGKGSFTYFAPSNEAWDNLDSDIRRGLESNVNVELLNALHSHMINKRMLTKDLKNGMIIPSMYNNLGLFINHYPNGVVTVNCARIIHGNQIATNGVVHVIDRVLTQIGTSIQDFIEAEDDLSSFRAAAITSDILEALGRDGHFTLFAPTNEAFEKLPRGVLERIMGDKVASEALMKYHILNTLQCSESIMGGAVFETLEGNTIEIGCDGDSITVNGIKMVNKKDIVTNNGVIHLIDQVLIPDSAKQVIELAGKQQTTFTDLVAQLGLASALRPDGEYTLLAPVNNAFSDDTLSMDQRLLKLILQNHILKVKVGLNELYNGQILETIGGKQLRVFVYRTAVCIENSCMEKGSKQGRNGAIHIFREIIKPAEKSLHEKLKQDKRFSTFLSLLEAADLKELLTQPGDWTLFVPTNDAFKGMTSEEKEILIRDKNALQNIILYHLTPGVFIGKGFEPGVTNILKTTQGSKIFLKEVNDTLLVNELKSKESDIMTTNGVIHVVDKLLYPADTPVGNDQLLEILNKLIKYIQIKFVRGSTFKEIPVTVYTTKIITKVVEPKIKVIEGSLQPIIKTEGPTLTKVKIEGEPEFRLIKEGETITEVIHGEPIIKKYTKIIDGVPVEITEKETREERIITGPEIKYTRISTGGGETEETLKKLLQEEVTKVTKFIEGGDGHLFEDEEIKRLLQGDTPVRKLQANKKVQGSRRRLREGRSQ

Row | Substance | EC80 [1] [nM] | EC80 [2] [nM]
1 | recombinant human tenascin C (from UniProt P24821 23-625) | 0.9 | 
2 | human collagen type I (from UniProt P02452 162-1218; P08123 80-1119) |  | 100
